B1: TPR t1 (parent)
chain: GACCAAUCUGCCCUCAGAGCUCGAGAACAUCUUCGGAUGCAGAGGAGGCAGGCUUCGGUGGCGCGAUAGCGCCAACGUCCUCAACCUCCAAUGCAUCCCACCACAUGAUGAUGCCUGAAGAGCCUUGGUUUUUUG

Variants of: B1
Experiment: polymerase ribozyme fitness, log enrichment relative to wild type (log ratio); higher = more active; in vitro selection for triplet polymerase activity
Method in brief: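 Libraries of mutants in each subunit of a heterodimeric triplet polymerase ribozyme were generated by PCR and transcribed. In triplicate, each went through one in vitro selection round: annealing with biotinylated primer, partner subunit and triplets; frozen incubation at −7 °C; gel excision of extended constructs; streptavidin-bead capture; RT-PCR. Fitness, taken from Illumina sequencing of input and output libraries, is the logarithm of a genotype's enrichment over wild-type enrichment, averaged across replicates with inverse-variance weights. The logarithm is base 2, and genotypes needed ≥10 input reads and ≥1 read per output to be kept.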

Variant	polymerase ribozyme fitness (log ratio)
GACCAAACUGCCCUCAGAGCUCGAGAACAUCUUCGGAUGCGGAGGAGGCAGGCUUCGGUGGCGCGCUAGCGCCAACGUCCUCAACCUCCAAUGCAUCCCACCACAUGAUGAUGCCUGAAGAGCCUUGGUUUUUUG [U7A A41G A66C]	-1.26
GACCAAACUGCCCUCAGAGCUCGAGAACAUCUUCGGAUGCGGAGGAGGCAGGCUUCGGUGGCGCGAUAGCGCCAACGUCCUCAACCUCCAAAGCAUCCCACCACAUGAUGAUGCCUGAAGAGCCUUGGUUUUUUG [U7A A41G U92A]	-1.89
GACCAAACUGCCCUCAGAGCUCGAGAACAUCUUCGGAUGCUGAGGAGGCAGGCUUCGGUGGCGCGAUAGCGACAACGUCCUCAAUCUCCAAUGCAUCCCACCACAUGAUGAUGCCUGAAGAGCCUUGGUUUUUUG [U7A A41U C72A C85U]	-0.761
GACCAAACUGCCCUCAGAGCUCGAGAACAUCUUCGGAUGCUGAGGAGGCAGGCUUCGGUGGCGCGAUAGCGCCAACGUCCUCAAUCUCCAAUGCAUCCCACCACAUGAUGAUGCCUGAAGAGCCUUGGUUUUUUG [U7A A41U C85U]	-1.81
GACCAAACUGCCCUCAGAGCUCGAGAACAUCUUCGGAUGCUGAGGAGGCAGGCUUCGGUGGCGCGAUAGCACCAACGUCCUCAAUCACCAAUGCAUCCCACCACAUGAUGAUGCCUGAAGAGCCUUGGUUUUUUG [U7A A41U G71A C85U U87A]	-4.06
GACCAAACUGCCCUCAGAGCUCGAGAACAUCUUCGGAUGCAGAGGUGGCUGGCUUCGGUAGCGCGAUAUCGCCAACGUCCUCAACCUCCAAUGCACCCCACCACAUGAUGAUGCCUGAAGAGCCUUGGUUUUUUG [U7A A46U A50U G60A G69U U96C]	-1.72
GACCAAACUGCCCUCAGAGCUCGAGAACAUCUUCGGAUGCAGAGGAGGCUGGCUUCGGUGGCGCGAUAGCGCCAACAUCCUCAACCUCCAAUGCAUCCCACCACAUGAUGAUGCCUGAAGAGCCUUGGUUUUUUG [U7A A50U G77A]	-1
GACCAAACUGCCCUCAGAGCUCGAGAACAUCUUCGGAUGCAGAGGAGGCAGGCUUCGGUGGCGCGAUAGCGCCAACGUCCUCAACCUCCAAUGCAUCCCACCUCAUGAUGAUGCCUGAAGAGCCUUGGUUUUUUG [U7A A103U]	-4.28
GACCAAAAUGGCCUCAGAGCUCGAGAACAUCUUCGGAUGCAGAGGAUGCAGGCUUCUGUGGUGCGAUAGCGCCAACGUCCUCAAACUCCAAUGCAUCCCACCACAUGAUGAUGCCUGAAGAGCCUUGGUUUUUUG [U7A C8A C11G G47U G57U C62U C85A]	-1.82
GACCAAAGUGCCCUCCGAGCUCGAGAACAUCUUCGGAUGCAGAGGUGGCAGGCUUCGGUGGCGCGAUAGAGCCAACGUCCUCAACCUCCAAUGCAUCCCACCACAUGAUGAUGCCUGAAGAGCCUUGGUUUUUUG [U7A C8G A16C A46U C70A]	-3.78
GACCAAAGUGCCCUCAGAGCUCGAGAACAUCUUCGGAUGCAGCGGAGGCAGGAUUCGGUGGCGCGAUAGCGCCAACAUCCUCAACCUCCAAUGCAUCCCACCACAUGAUGAUGCCUGAAGAGCCUUGGUUUUUUG [U7A C8G A43C C53A G77A]	-2.07
GACCAAACUGACCUCAGAGCUCGAGUACAUCUUCGGAUGCAGAGGAGGCAGGCUUCGGUGGCACGAUAGCGCCAACGUCCUCAACCUCCAAUGCAUCCCACCACAUGAUGAAGCCUGAAGAGCCUUUGUUUUUUG [U7A C11A A26U G63A U112A G127U]	-3.63
GACCAAACUGACCUCAGAGCUCGAGAACAUCUUCGGAUGUAGAGGAGGCAGGCUUCGGUGGCGCGAUAGCGCCAACGUCCUCAACCUCCAAUCCAUCCCACCACAUGAUGAUGCCUGAUGAUCCUUGGUUUUUUG [U7A C11A C40U G93C A119U G122U]	0.441
GACCAAACUGACCUCAGAGCUCGAGAACAUCUUCGGAUGCAGAGGAGGCAGGCUUCGGUGGCGCGAUAGCGCCAACAUCCGCAACCUCCAAUGCAUCCCACCACAUGAUGAUGCCUGAAGAGCCUUGGUUUUUUG [U7A C11A G77A U81G]	-1.65
GACCAAACUGCACUCAGAGAUCGAGAACAUCUUCGGAUGCAUAGGAGGCAGGCUUCGGUGGCGCGAUAGCGCCAACGUCCUCAACCUCCAAUGCAUCCCACCACAUGAUGAUGCCUGAAGAGCCUUGGUUUUUUG [U7A C12A C20A G42U]	-3.2
GACCAAACUGCACUCAGAGCUCGAGAAGAUCUUCGGAUGCAGAGGAGGCAGGCUUCGAUGGCGCGAUAGCGCCAACGUCCUCAACCGCCAAUGCAUCCCACCACAUGAUGAUGCCUGAAUAGCCUUGGUUUUUUG [U7A C12A C28G G58A U87G G120U]	-1.72
GACCAAACUGCGCUCAGCGCUCGAGAACAUCUUCGGAUGCAGAGAAGAAAGGCUUCGGUGGCGCGAUAGCGCCGACGUCCUCAAUCUCCAAUGCAUCCCACCACAUGAUGAUGCCUGAAGAGCCUUGGUUUUUUG [U7A C12G A18C G45A G48A C49A A74G C85U]	-5.35
GACCAAACUGCGCUCAUAGCUCGAGAACAUCUUCGGAUGCAGAGGAGGCAGGCUUCGGUGGCGCGAUAGCGCCAACGUCCUCAACCUCCAAUGCAUCCCACCACGUGAUGAUGCCUGAACAGCCUUGGUUUUUUG [U7A C12G G17U A105G G120C]	-4.05
GACCAAACUGCUCUCAGAGCUCGAGAACAUCUUCGGAUGCAGAGGUGGCAGGCUUCGAUGGCGCGAUAGAGCCAACGUCCUCAACCUCCAAUGCAUCCCACCACAUGAUGAUGCCUGAAGAGCCUUGGUUUUUUG [U7A C12U A46U G58A C70A]	-1.97
GACCAAACUGCCAUCAGAGCUCGAGAACAUCUUCGGAUGCAGAGGAGGCAGGCUUCGGUGGCGCGAUAGCGCCAACGUCCUCAACCUCCAAUGCAUCCCACCACAUGAUGAUGCCUGAAGAGCCUUGGUUUUUUG [U7A C13A]	-0.751
GACCAAACUGCCUUCAGAGCUCGAGAGCAUCUUCGUAUGCAGAGGAGGCCGGCUUCGGUGGCGCGAUAGCGCCAACGUCCUCAACCUCCAAUGCAUCCCACCACAUGAUGAUGCCUGAAGAGCCUUGGUUUUUUG [U7A C13U A27G G36U A50C]	-2.73

Variant	polymerase ribozyme fitness (log ratio)
GACCAAACUGCCUUCAGACCUCGAGAACAUCUUCGGAUGCAGAGGAGGCAGGCUUCGGUGGCGCGAUAGCGCCAACGUCCUCAACCUCCAAUGCAUCCCACCACAUGAUGAUUCCUGAAGAGCCUUGGUUUUUUG [U7A C13U G19C G113U]	-1.96
GACCAAACUGCCCUAAGAGCUCGAGAACAUCUUCGGAUGCCGAGGAGGCAGGCUUCGGUGGCGCGAUAGUGCCAACGUCCUCAACCUCCAAUGCAUCCCACCACAUGAUGAUGCCUGAAGAGCCUUGGUUUUUUG [U7A C15A A41C C70U]	-2.92
GACCAAACUGCCCUAAGAGCUCGAGAACAUCUUCGGAUGCAGAGGAGGCAGGCUUCGGUGGUGUGAUAGCGCCAACGUCCUCAACCUCCAAUUCAUCCCACCACAUGAUGAUGCCUGAAGAGCCUUGGUUUUUUG [U7A C15A C62U C64U G93U]	-1.99
GACCAAACUGCCCUCAGAGAUCGAGGACAUCUUCGGAUGCAGAGGAGGCAGGCUUCGGUGGCGCGAUAGCGCCAACGUCCUUAACCUCCAAUGCAUCCCACCACAUGAUGAUGCCUGAAGAGCCAUGGUUUUUUG [U7A C20A A26G C82U U125A]	-3.24
GACCAAACUGCCCUCAGAGUUCGAGAACAUCUUCGGAUGCAGAGGAGGCAGGCUUCGGUGGCGCGAUAGCGCUAACGUCCUCAACCUCCAAUGCAUCCCACCACAUGAUGAUGCCUGAAAAGCCUUGGCUGUUUG [U7A C20U C73U G120A U129C U131G]	-0.869
GACCAAACUGCCCUCAGAGCUUGAGAACAUCUUCGGAUACAGAUGAGGCAGGUUUGGGUGGCACGAUUGCGCCAACGUCCUCAACCUCCAAUGCAUCCCACCACAUGAUGAUGCCUGAAGAGCAAUGGUUUUUUG [U7A C22U G39A G44U C53U C56G G63A A68U C124A U125A]	-6.98
GACCAAACUGCCCUCAGAGCUCGAGAACAUUUUCGGAUGCAGAGGAGGCAGGCUUCGGUAGCGCGAUAGCGCCAACGUCCUCAACCUCCAAUGCAUCCCACCACAUGAUGAUGCCUGAAGAGCCUUGGUUUUUUG [U7A C31U G60A]	-4.77
GACCAAACUGCCCUCAGAGCUCGAGAACAUCUUCGGAUGAAGAGGAGGCAGGCUUCGGUGGCGCGAUAGCUCCAACGUCCUCAACCUCGAAUGCAUCCCACCCCAUGAUGAUGCCUGAAGAGCUUUGGUUUUUUG [U7A C40A G71U C89G A103C C124U]	-6.17
GACCAAACUGCCCUCAGAGCUCGAGAACAUCUUCGGAUGGAGAGGAGGCAGGCUUCGGUGGCGCGAUAGCGCCAACGUCCUCAACCUCCAAUGCAUCCCACCACAUGAUGAUGCCUGAAGAGCCUUGGUUUUUUG [U7A C40G]	-0.25
GACCAAACUGCCCUCAGAGCUCGAGAACAUCUUCGGAUGUAGAGGAGGCAGGCUUCGGUGGCGCGAUAGCGCCAACGUCCUCAACCUCCAAUGCAUCCCACCACAUGAUGAUGCCUGAAGAGCCUUGGUUUUUUG [U7A C40U]	0.348
GACCAAACUGCCCUCAGAGCUCGAGAACAUCUUCGGAUGUAGAGGAGGCAGGCUUCGGUGGCGCGAUAGCGCCAACGUCCUCAAGCUCCAAUGCAUCCCACCAUAUGAUGAUGCCUGAAGAGCCUUGGUUUUUUG [U7A C40U C85G C104U]	-2.31
GACCAAACUGCCCUCAGAGCUCGAGAACAUCUUCGGAUGCAGAGGAGGUAGGUUUCGGAGGCGCGAUAGCGCCAAAGUCCUCAACCUCCAAUGCAUCCCACCACAUGAUGAUGCCUGAAGAGCCUUGGUUUUUUG [U7A C49U C53U U59A C76A]	-0.656
GACCAAACUGCCCUCAGAGCUCGAGAACAUCUUCGGAUGCAGAGGAGGCAGGGUUCGGUGGCGCGAUAGCGCCAACGUCCUCGCCCUCCAAUGCAUCCCACCACAUGAUGAUGCCUGAAGAGCCUUGGUUUUUUG [U7A C53G A83G A84C]	-0.766
GACCAAACUGCCCUCAGAGCUCGAGAACAUCUUCGGAUGCAGAGGAGGCAGGUUUCGGUGGCGCGAUAGCGCCAACGUCCUCAACCUCCAAUGCAUCCCACCACAUGAUGAUGCCUGAAGAGCCUUGGUUUUUUG [U7A C53U]	-0.0186
GACCAAACUGCCCUCAGAGCUCGAGAACAUCUUCGGAUGCAGAGGAGGCAGGUUUCGGUGGCGCGAUAGCGCCAACGUCCUCAACUUCCGAUGCAUCCCACCACAUGAUGAUGCCUGAAGAACCUUGGUUUUUUG [U7A C53U C86U A90G G122A]	-1.97
GACCAAACUGCCCUCAGAGCUCGAGAACAUCUUCGGAUGCAGAGGAGGCAGGCUUAGGUGGCGCGAUAGCGCCAACGUCCUCAACCUCCAAUGCAUCCCACCACAUGAUGAUGCCUGAAGGGCCUUGGUUUUUUG [U7A C56A A121G]	1.68
GACCAAACUGCCCUCAGAGCUCGAGAACAUCUUCGGAUGCAGAGGAGGCAGGCUUCGGUGGGGCGAUAGCGCCAACGUCCUCAACUUCCAAUGCAUCCCACCACAUGAUGAUGCCUGAAGAGCCUUGGUUUUUUG [U7A C62G C86U]	-1.24
GACCAAACUGCCCUCAGAGCUCGAGAACAUCUUCGGAUGCAGAGGAGGCAGGCUUCGGUGGCGCGAUAGAGCCAACGUCCUCAACCUCCAAUGCAUCCCACCACAUGAUGAUCCCUGAAGAGCCUUGGUUUUUUG [U7A C70A G113C]	-4.53
GACCAAACUGCCCUCAGAGCUCGAGAACAUCUUCGGAUGCAGAGGAGGCAGGCUUCGGUGGCGCGAUAGCGACAACGUCCUCAACCUCCAAUCCAUCCCACCACAUGAUGAUGCCUGAAGAGCCUUGGUUUUUUG [U7A C72A G93C]	-0.463
GACCAAACUGCCCUCAGAGCUCGAGAACAUCUUCGGAUGCAGAGGAGGCAGGCUUCGGUGGCGCGAUAGCGUCAACCUCCUCAACCUCCAAUCCAUCCCACCACAUGAUGAUACCUGAAAAGCCUUGGUUUUUUG [U7A C72U G77C G93C G113A G120A]	-2.99
GACCAAACUGCCCUCAGAGCUCGAGAACAUCUUCGGAUGCAGAGGAGGCAGGCUUCGGUGGCGCGAUAGCGUCAACGUCCUCAACCUCCAACGCAUCCCACCACAUGAUGAUGCCUGAAGAGCCUUGGUUUUUUG [U7A C72U U92C]	-0.872

Source: the RNAGym collection of RNA variant scans (doi:10.1073/pnas.2313332121)
